Non-standard residues stand in square brackets, D forms with d. No end group written: not given here. Trp(5-OH) = N[C@@H](Cc1c[nH]c2ccc(O)cc12)C(=O)O; Phe(4-NH2) = Nc1ccc(C[C@H](N)C(=O)O)cc1

First the molecules themselves.
B1: SYNGAP peptide F4-NH2F (peptide)
peptide: RRRRRRGS[Phe(4-NH2)]PPWVQQTRV
B2: SYNGAP peptide D-Gln9 (peptide)
peptide: RRRRRRGSFPPWV[dQ]QTRV
B3: aC binder peptide (peptide)
peptide: GSFPPWVQ
B4: Syn3* (peptide)
peptide: CGSFPPWVKKTEV
modifications: not fully specified
B5: SYNGAP peptide D-Val8 (peptide)
peptide: RRRRRRGSFPPW[dV]QQTRV
B6: CN2097 (peptide)
chain 1: RRRRRRRC
chain 2: CKNYKKTEV
B7: SYNGAP peptide W7-OHW (peptide)
peptide: RRRRRRGSFPP[Trp(5-OH)]VQQTRV
B8: SYNGAP peptide D-Pro5 (peptide)
peptide: RRRRRRGSFP[dP]WVQQTRV
B9: SYNGAP peptide D-Pro4 (peptide)
peptide: RRRRRRGSF[dP]PWVQQTRV
B10: SYNGAP peptide D-Ser3 (peptide)
peptide: RRRRRRG[dS]FPPWVQQTRV
B11: D-Syn3 (peptide)
chain 1: RRRRRRRC
chain 2: CGSFPPWVQKTEV
modifications: cysteine pairing not given here; also: D- prefix in name, meaning not given here

For the first assay, the target named is T1, PSD-95 PDZ3cα (residues R309-S422) (Homo sapiens, UniProt P78352). Briefly: SPR.
T1 sequence (P78352 309-422): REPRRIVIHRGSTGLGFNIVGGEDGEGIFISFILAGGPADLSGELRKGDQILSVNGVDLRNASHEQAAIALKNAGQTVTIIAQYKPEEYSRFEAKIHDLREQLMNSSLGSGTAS
Conditions: not given
What is called koff is the rate constant with which the complex falls apart. Low values mean slow dissociation, high ones fast dissociation. In turn, SYNGAP peptide V8I had a koff of 0.00294 s⁻¹. On the same count and under the same terms, for SYNGAP peptide V8L the value was 0.00381 s⁻¹. As usually defined, the kon is a measure of how fast the partners come together. High values mean fast association, low ones slow association. In turn, SYNGAP peptide F4H had a koff of 0.0261 s⁻¹ and an on-rate constant (kon) of 216000 M⁻¹ s⁻¹.

The target of another assay is PSD-95 PDZ3cα protein (residues R309-S422) (UniProt P78352 309-422). Briefly: SPR.
Chain of PSD-95 PDZ3cα protein (residues R309-S422) (P78352 309-422): as above
Conditions: not given
Take B1: the dissociation rate constant (koff) amounted to 0.0104 s⁻¹ and the on-rate (kon) came to 153000 M⁻¹ s⁻¹.

Turning to B2, the koff is 0.0182 s⁻¹ and the kon stood at 317000 M⁻¹ s⁻¹. As to B3, the dissociation rate constant (koff) was 0.00592 s⁻¹ and the kon was determined as 1000 M⁻¹ s⁻¹. The matching figures for B4: 0.0287 s⁻¹ and 439000 M⁻¹ s⁻¹. The molecule B5 yielded a koff of 0.0459 s⁻¹ and an on-rate constant (kon) of 2.19e+06 M⁻¹ s⁻¹. The matching figures for B6: 0.00109 s⁻¹ and 6000 M⁻¹ s⁻¹. B7 had a koff of 0.0106 s⁻¹ and an association rate constant (kon) of 24000 M⁻¹ s⁻¹.

In the case of B8, the koff came out at 0.0444 s⁻¹ and the kon amounted to 1.83e+06 M⁻¹ s⁻¹. The like results for B9 were, in that order, 0.0116 s⁻¹ and 1.88e+06 M⁻¹ s⁻¹. The like results for B10 were, in that order, 0.00493 s⁻¹ and 633000 M⁻¹ s⁻¹.

In the case of B11, the koff was 0.0125 s⁻¹ and the kon turned out to be 458000 M⁻¹ s⁻¹.

Another assay deals with T1, PSD-95 PDZ3cα (residues R309-S422). The assay can be described thus: SPR binding of peptides to immobilized PDZ3cα.
Conditions: not given
One may read the Kd as a measure of binding affinity in units of concentration. In the case of `CC(C)[C@H](NC(=O)[C@H](CCCNC(=N)N)NC(=O)[C@@H](NC(=O)[C@H](CCC(N)=O)NC(=O)[C@H](CCC(N)=O)NC(=O)[C@@H](NC(=O)[C@H](Cc1c[nH]c2ccccc12)NC(=O)[C@@H]1CCCN1C(=O)[C@H]1CCCN1C(=O)[C@H](Cc1ccccc1)NC(=O)[C@H](CO)NC(=O)CNC(=O)[C@H](CCCNC(=N)N)NC(=O)[C@H](CCCNC(=N)N)NC(=O)[C@H](CCCNC(=N)N)NC(=O)[C@H](CCCNC(=N)N)NC(=O)[C@H](CCCNC(=N)N)NC(=O)[C@@H](N)CCCNC(=N)N)C(C)C)[C@@H](C)O)C(=O)O` [D-Pro4], the Kd was found to be 6.1 nM. On the same count and under the same terms, for `CC(C)[C@H](NC(=O)[C@H](CCCNC(=N)N)NC(=O)[C@@H](NC(=O)[C@H](CCC(N)=O)NC(=O)[C@H](CCC(N)=O)NC(=O)[C@@H](NC(=O)[C@H](Cc1c[nH]c2ccccc12)NC(=O)[C@H]1CCCN1C(=O)[C@@H]1CCCN1C(=O)[C@H](Cc1ccccc1)NC(=O)[C@H](CO)NC(=O)CNC(=O)[C@H](CCCNC(=N)N)NC(=O)[C@H](CCCNC(=N)N)NC(=O)[C@H](CCCNC(=N)N)NC(=O)[C@H](CCCNC(=N)N)NC(=O)[C@H](CCCNC(=N)N)NC(=O)[C@@H](N)CCCNC(=N)N)C(C)C)[C@@H](C)O)C(=O)O` [D-Pro5] the value was 24.3 nM; for `CC(C)[C@H](NC(=O)[C@H](CCCNC(=N)N)NC(=O)[C@@H](NC(=O)[C@H](CCC(N)=O)NC(=O)[C@H](CCC(N)=O)NC(=O)[C@@H](NC(=O)[C@H](Cc1c[nH]c2ccccc12)NC(=O)[C@@H]1CCCN1C(=O)[C@@H]1CCCN1C(=O)[C@H](Cc1ccccc1)NC(=O)[C@@H](CO)NC(=O)CNC(=O)[C@H](CCCNC(=N)N)NC(=O)[C@H](CCCNC(=N)N)NC(=O)[C@H](CCCNC(=N)N)NC(=O)[C@H](CCCNC(=N)N)NC(=O)[C@H](CCCNC(=N)N)NC(=O)[C@@H](N)CCCNC(=N)N)C(C)C)[C@@H](C)O)C(=O)O` [D-Ser3], 7.8 nM; for “GSFPPWVQ [aC binder, reference compound]”, 11100 nM. On the same count and under the same terms, for `CC(C)[C@H](NC(=O)[C@H](CCCNC(=N)N)NC(=O)[C@@H](NC(=O)[C@H](CCC(N)=O)NC(=O)[C@@H](CCC(N)=O)NC(=O)[C@@H](NC(=O)[C@H](Cc1c[nH]c2ccccc12)NC(=O)[C@@H]1CCCN1C(=O)[C@@H]1CCCN1C(=O)[C@H](Cc1ccccc1)NC(=O)[C@H](CO)NC(=O)CNC(=O)[C@H](CCCNC(=N)N)NC(=O)[C@H](CCCNC(=N)N)NC(=O)[C@H](CCCNC(=N)N)NC(=O)[C@H](CCCNC(=N)N)NC(=O)[C@H](CCCNC(=N)N)NC(=O)[C@@H](N)CCCNC(=N)N)C(C)C)[C@@H](C)O)C(=O)O` [D-Gln9] the value was 57.3 nM; for `CC(C)[C@H](NC(=O)[C@H](CCCNC(=N)N)NC(=O)[C@@H](NC(=O)[C@H](CCC(N)=O)NC(=O)[C@H](CCC(N)=O)NC(=O)[C@H](NC(=O)[C@H](Cc1c[nH]c2ccccc12)NC(=O)[C@@H]1CCCN1C(=O)[C@@H]1CCCN1C(=O)[C@H](Cc1ccccc1)NC(=O)[C@H](CO)NC(=O)CNC(=O)[C@H](CCCNC(=N)N)NC(=O)[C@H](CCCNC(=N)N)NC(=O)[C@H](CCCNC(=N)N)NC(=O)[C@H](CCCNC(=N)N)NC(=O)[C@H](CCCNC(=N)N)NC(=O)[C@@H](N)CCCNC(=N)N)C(C)C)[C@@H](C)O)C(=O)O` [D-Val8], 20.9 nM.

With RRRRRRGSFPPWIQQTRV [V8I], the dissociation constant Kd was 101 nM. The molecule RRRRRRGSFPPWLQQTRV [V8L] had a Kd of 58.4 nM. Compared with the last molecule, the Kd is about 1.7-fold lower.

In turn, RRRRRRGSHPPWVQQTRV [F4H] showed a Kd of 121 nM.

Another assay deals with AS mouse model. Briefly: AS mouse model / animal studies. The format is in vivo. Conditions: data to be reported elsewhere.
In the case of `CC(C)[C@H](NC(=O)[C@H](CCCNC(=N)N)NC(=O)[C@@H](NC(=O)[C@H](CCC(N)=O)NC(=O)[C@H](CCC(N)=O)NC(=O)[C@@H](NC(=O)[C@H](Cc1c[nH]c2ccccc12)NC(=O)[C@@H]1CCCN1C(=O)[C@@H]1CCCN1C(=O)[C@H](Cc1ccccc1)NC(=O)[C@H](CO)NC(=O)CNC(=O)[C@H](CS)NC(=O)[C@H](CS)NC(=O)[C@H](CCCNC(=N)N)NC(=O)[C@H](CCCNC(=N)N)NC(=O)[C@H](CCCNC(=N)N)NC(=O)[C@H](CCCNC(=N)N)NC(=O)[C@H](CCCNC(=N)N)NC(=O)[C@H](CCCNC(=N)N)NC(=O)[C@@H](N)CCCNC(=N)N)C(C)C)[C@@H](C)O)C(=O)O` [SYNGAP], the “effect in AS mouse model / animal studies” value is reported as “did not have the same beneficial effects as Syn3”.

The values are drawn from PMC10441386 (bioRxiv, 2023).
